Patent publication US5780265, “Kunitz type plasma kallikrein inhibitors” (Genentech, Inc., dated 1998)
Numbering of substitutions follows the chain as printed. Where two headings read alike, the source gives them in different places. Where no end group is shown, it is not given here.

B1: KALI-D (designed binder)
chain: VREVCSEQAEDGHCRAAHPRWYFDVTEGKCAPFFYGGCGGNRNNFDTEEYCAAVCGSA
B2: KALI-DY (designed binder)
chain: B1 chain with F34Y
B3: KALI-PV (designed binder)
chain: B1 chain with D11P, F34V
B4: KALI-48 (designed binder)
chain: B1 chain with D11T, H18I
B5: KALI-8 (designed binder)
chain: B1 chain with D11L, H18I
B6: KALI-P (designed binder)
chain: B1 chain with D11P
B7: KALI-13 (designed binder)
chain: B1 chain with D11S, H18I
B8: KALI-E (designed binder)
chain: B1 chain with D11E
B9: KALI-30 (designed binder)
chain: B1 chain with D11E, H18I, P19L
B10: KALI-46 (designed binder)
chain: B1 chain with D11E, H13R, A17S, H18I, P19L
B11: KALI-DV (designed binder)
chain: B1 chain with F34V
B12: KALI-PY (designed binder)
chain: B1 chain with D11P, F34Y
modifications: not fully specified (bridges); cysteine pairing not given here
B13: KALI-EY (designed binder)
chain: B1 chain with D11E, F34Y
B14: KALI-EV (designed binder)
chain: B1 chain with D11E, F34V

Assays:
Human Factor XIa [1] = target: T1, Human Factor XIa (human, UniProt P03951); experiment: enzyme inhibition of FXIa, chromogenic substrate, fit to the tight-binding equation (apparent Ki*)
Human plasma kallikrein [2] = target: T2, Human plasma kallikrein (human, UniProt P03952); experiment: enzyme inhibition of plasma kallikrein, substrate S2302, fit to the tight-binding equation (apparent Ki*)
Human plasma kallikrein [3] = target: T2, Human plasma kallikrein; experiment: enzyme inhibition of plasma kallikrein (apparent Ki*)
Human plasma kallikrein [4] = target: T2, Human plasma kallikrein; experiment: enzyme inhibition of plasma kallikrein (apparent Ki*), against APPI
Human plasma kallikrein [5] = target: T2, Human plasma kallikrein; experiment: enzyme inhibition of plasma kallikrein (apparent Ki*), against BPTI
Human plasma kallikrein [6] = target: T2, Human plasma kallikrein; experiment: enzyme inhibition of plasma kallikrein, substrate S2302, fit to the tight-binding equation (apparent Ki*); remark: listed apart in the source
Method: Determination of the apparent equilibrium dissociation constants of selected Kunitz domains with plasma kallikrein and FXIa. The inhibitory activity is expressed as the fractional activity (inhibited rate/uninhibited rate) at varying inhibitor concentrations. The apparent equilibrium dissociation constants were determined by nonlinear regression analysis of the data to equation 1.
Plots of the fractional rate versus inhibitor concentration were fit by nonlinear regression analysis to Equation 1 to determine apparent equilibrium dissociation constants (K_i^*):

Human Factor XIa [7] = target: T1, Human Factor XIa; experiment: enzyme inhibition of FXIa, chromogenic substrate, fit to the tight-binding equation (apparent Ki*); remark: listed apart in the source

Row | Binder | Ki (Human Factor XIa [1]) [nM] | Ki (Human plasma kallikrein [2]) [nM] | Ki (Human plasma kallikrein [6]) [nM] | Ki (Human Factor XIa [7]) [nM] | further results
1 | B1 | 5.7 | 0.025 | – | – | Ki (Human plasma kallikrein [3]): < 0.05 nM
2 | B2 | 8.2 | 0.015 | – | – | fold better inhibition than APPI (Human plasma kallikrein [4]): > 10000 fold; Ki (Human plasma kallikrein [3]): < 0.05 nM; fold more potent than BPTI (Human plasma kallikrein [5]): 3000 fold
3 | B3 | 4.1 | 0.166 | – | – | –
4 | B4 | – | – | 0.209 | 0.7 | –
5 | B5 | – | – | 0.074 | 0.3 | –
6 | B6 | 13.8 | 0.2 | – | – | –
7 | B7 | – | – | 0.203 | 1.4 | –
8 | B8 | 4.5 | 0.103 | – | – | –
9 | B9 | – | – | 0.258 | 0.4 | –
10 | B10 | – | – | 0.175 | 0.3 | –
11 | B11 | 1.3 | 0.043 | – | – | Ki (Human plasma kallikrein [3]): < 0.05 nM
12 | B12 | 11.7 | 0.136 | – | – | –
13 | B13 | 7.3 | 0.98 | – | – | –
14 | B14 | – | 0.117 | – | – | –
